Measured values as given in patent US20210261671A1 (HARPOON THERAPEUTICS, published 2021).
Each block holds one binder with its values, some of them ahead of it.

How the values were obtained:
[1] = biological target: T1, anti-FLT3/anti-albumin/anti-CD3 multispecific protein containing FLL134; assay: BLI (Octet), conditioned medium, single 50 nM concentration (relative affinity)
T1 construct: trispecific single-chain fusion with His6; Expi293 conditioned medium
Procedure: (§1) Additional affinity determinations were performed using conditioned media from Example 2 with known concentrations of anti-FLT3/anti-CD3 multispecific proteins. […] An Octet instrument with streptavidin tips were loaded with biotinylated human or cynomolgus FLT3 protein, and KD values for binding FLT3 were calculated by measuring the on rate and off rate of binding of anti-FLT3/anti-CD3 multispecific proteins to the biotinylated FLT3 proteins.

[2] = biological target: T2, anti-FLT3/anti-albumin/anti-CD3 multispecific protein containing FLL92; assay: as above
T2 construct: trispecific single-chain fusion with His6; Expi293 conditioned medium
Procedure: as §1

[3] = biological target: T3, anti-FLT3/anti-albumin/anti-CD3 multispecific protein containing FLL153; assay: as above
T3 construct: trispecific single-chain fusion with His6; Expi293 conditioned medium
Procedure: as §1

[4] = biological target: T4, anti-FLT3/anti-albumin/anti-CD3 multispecific protein containing FLL71; assay: as above
T4 construct: trispecific single-chain fusion with His6; Expi293 conditioned medium
Procedure: as §1

[5] = biological target: T5, anti-FLT3/anti-albumin/anti-CD3 multispecific protein containing FLL8; assay: as above
T5 construct: trispecific single-chain fusion with His6; Expi293 conditioned medium
Procedure: as §1

[6] = biological target: T6, anti-FLT3/anti-albumin/anti-CD3 multispecific protein containing FLL41; assay: as above
T6 construct: trispecific single-chain fusion with His6; Expi293 conditioned medium
T6 sequence (chain, as listed by the source): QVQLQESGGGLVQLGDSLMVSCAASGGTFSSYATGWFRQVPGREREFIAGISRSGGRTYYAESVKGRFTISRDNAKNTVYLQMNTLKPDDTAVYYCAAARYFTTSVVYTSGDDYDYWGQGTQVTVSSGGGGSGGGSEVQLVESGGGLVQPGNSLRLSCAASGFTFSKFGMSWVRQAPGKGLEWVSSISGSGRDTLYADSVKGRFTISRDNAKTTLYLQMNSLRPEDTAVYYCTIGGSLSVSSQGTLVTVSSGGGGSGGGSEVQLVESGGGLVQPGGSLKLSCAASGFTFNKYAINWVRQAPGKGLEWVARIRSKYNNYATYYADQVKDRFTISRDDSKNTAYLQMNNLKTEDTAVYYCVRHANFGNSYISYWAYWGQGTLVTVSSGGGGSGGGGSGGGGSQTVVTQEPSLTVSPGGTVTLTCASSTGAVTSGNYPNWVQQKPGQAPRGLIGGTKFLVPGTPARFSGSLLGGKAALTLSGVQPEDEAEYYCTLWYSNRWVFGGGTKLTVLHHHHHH
Procedure: as §1

[7] = biological target: T7, anti-FLT3/anti-albumin/anti-CD3 multispecific protein containing humanized FLH78; assay: BLI (Octet), biotinylated FLT3 on streptavidin tips
T7 construct: trispecific single-chain fusion with His6; purified from CHO conditioned medium
T7 sequence (chain, as listed by the source): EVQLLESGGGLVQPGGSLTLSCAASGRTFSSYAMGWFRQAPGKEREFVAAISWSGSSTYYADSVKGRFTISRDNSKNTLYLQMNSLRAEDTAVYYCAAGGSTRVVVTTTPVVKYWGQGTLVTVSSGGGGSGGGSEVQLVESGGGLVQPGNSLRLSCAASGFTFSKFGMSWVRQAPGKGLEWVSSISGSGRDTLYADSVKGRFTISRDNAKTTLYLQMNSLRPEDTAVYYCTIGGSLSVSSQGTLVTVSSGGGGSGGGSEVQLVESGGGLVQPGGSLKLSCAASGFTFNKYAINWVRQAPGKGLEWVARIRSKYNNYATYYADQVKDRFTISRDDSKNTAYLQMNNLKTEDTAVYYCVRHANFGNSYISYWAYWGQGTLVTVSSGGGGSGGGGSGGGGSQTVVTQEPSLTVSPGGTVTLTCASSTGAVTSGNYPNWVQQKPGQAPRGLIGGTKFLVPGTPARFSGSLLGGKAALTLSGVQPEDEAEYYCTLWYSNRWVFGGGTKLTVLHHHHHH
Procedure: (§2) The affinities of the purified multispecific proteins for human and cynomolgus FLT3 were measured with an Octet instrument with streptavidin tips were loaded with biotinylated human or cynomolgus FLT3 protein. The tips were then incubated with solutions containing 50, 16.7, 5.6, or 1.9 nM of the multispecific protein. Affinities (KD), listed in Table 7, were calculated by measuring the on rate and off rate of binding of anti-FLT3/anti-albumin/anti-CD3 multispecific proteins to the captured biotinylated FLT3 proteins.

[8] = biological target: T8, anti-FLT3/anti-albumin/anti-CD3 multispecific protein containing humanized FLH141; assay: as above
T8 construct: trispecific single-chain fusion with His6; purified from CHO conditioned medium
T8 sequence (chain, as listed by the source): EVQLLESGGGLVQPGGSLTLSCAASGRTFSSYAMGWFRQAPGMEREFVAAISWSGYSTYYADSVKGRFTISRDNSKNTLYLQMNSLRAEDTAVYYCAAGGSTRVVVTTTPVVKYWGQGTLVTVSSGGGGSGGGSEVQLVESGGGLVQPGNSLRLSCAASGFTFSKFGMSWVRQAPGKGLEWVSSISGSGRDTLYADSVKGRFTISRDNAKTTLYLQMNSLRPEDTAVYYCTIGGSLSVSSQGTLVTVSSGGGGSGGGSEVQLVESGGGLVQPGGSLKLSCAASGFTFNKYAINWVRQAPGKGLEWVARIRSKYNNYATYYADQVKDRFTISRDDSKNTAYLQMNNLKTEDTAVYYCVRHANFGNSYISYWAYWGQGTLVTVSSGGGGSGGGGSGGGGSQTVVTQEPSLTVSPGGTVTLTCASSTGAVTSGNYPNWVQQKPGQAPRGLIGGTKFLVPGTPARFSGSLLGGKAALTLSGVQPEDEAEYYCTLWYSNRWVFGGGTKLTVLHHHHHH
Procedure: as §2

[9] = biological target: T9, anti-FLT3/anti-albumin/anti-CD3 multispecific protein containing humanized FLH19C; assay: as above
T9 construct: trispecific single-chain fusion with His6; purified from CHO conditioned medium
T9 sequence (chain, as listed by the source): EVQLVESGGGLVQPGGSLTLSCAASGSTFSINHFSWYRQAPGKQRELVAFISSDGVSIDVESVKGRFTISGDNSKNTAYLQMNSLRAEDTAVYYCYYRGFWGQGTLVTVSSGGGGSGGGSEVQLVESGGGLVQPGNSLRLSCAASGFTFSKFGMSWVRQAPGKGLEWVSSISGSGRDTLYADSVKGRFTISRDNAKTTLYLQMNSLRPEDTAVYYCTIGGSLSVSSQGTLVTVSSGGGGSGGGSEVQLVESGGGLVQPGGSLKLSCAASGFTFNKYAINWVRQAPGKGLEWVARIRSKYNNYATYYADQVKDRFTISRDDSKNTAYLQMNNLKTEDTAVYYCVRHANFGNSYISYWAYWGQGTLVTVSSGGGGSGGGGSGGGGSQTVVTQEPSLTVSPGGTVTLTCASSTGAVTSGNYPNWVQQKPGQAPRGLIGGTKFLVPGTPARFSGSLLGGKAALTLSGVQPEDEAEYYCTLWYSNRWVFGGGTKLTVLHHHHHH
Procedure: as §2

[10] = biological target: T10, anti-FLT3/anti-albumin/anti-CD3 multispecific protein containing humanized FLH34; assay: as above
T10 construct: trispecific single-chain fusion with His6; purified from CHO conditioned medium
T10 sequence (chain, as listed by the source): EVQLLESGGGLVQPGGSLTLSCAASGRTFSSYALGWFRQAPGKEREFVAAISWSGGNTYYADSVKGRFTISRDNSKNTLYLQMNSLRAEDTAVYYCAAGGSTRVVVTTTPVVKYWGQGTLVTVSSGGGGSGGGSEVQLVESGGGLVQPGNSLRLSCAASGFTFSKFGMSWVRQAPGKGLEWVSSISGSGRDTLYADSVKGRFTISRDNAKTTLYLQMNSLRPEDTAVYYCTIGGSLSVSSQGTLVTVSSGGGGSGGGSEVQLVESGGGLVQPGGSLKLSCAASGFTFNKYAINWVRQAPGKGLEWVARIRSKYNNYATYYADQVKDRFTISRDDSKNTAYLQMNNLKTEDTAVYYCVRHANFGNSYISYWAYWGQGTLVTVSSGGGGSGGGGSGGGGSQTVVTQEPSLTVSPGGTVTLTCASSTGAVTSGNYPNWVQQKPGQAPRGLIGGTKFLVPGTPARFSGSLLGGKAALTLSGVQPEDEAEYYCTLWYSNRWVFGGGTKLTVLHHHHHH
Procedure: as §2

[11] = biological target: T11, anti-FLT3/anti-albumin/anti-CD3 multispecific protein containing humanized FLH92a; assay: as above
T11 construct: trispecific single-chain fusion with His6; purified from CHO conditioned medium
T11 sequence (chain, as listed by the source): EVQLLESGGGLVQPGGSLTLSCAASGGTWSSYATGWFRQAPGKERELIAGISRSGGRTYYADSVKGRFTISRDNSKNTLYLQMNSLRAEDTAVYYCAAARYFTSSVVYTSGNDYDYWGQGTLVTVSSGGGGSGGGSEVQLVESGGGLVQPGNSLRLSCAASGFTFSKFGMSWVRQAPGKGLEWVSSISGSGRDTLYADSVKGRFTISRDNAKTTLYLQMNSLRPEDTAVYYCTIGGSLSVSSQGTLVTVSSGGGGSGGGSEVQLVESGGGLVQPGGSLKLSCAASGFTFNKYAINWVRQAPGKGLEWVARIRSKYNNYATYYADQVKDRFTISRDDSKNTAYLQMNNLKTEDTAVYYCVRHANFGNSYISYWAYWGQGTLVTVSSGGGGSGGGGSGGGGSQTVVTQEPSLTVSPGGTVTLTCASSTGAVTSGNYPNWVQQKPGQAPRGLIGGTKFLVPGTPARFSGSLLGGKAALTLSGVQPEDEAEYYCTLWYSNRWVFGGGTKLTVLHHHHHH
Procedure: as §2

[12] = biological target: T12, anti-FLT3/anti-albumin/anti-CD3 multispecific protein containing humanized FLH107; assay: as above
T12 construct: trispecific single-chain fusion with His6; purified from CHO conditioned medium
T12 sequence (chain, as listed by the source): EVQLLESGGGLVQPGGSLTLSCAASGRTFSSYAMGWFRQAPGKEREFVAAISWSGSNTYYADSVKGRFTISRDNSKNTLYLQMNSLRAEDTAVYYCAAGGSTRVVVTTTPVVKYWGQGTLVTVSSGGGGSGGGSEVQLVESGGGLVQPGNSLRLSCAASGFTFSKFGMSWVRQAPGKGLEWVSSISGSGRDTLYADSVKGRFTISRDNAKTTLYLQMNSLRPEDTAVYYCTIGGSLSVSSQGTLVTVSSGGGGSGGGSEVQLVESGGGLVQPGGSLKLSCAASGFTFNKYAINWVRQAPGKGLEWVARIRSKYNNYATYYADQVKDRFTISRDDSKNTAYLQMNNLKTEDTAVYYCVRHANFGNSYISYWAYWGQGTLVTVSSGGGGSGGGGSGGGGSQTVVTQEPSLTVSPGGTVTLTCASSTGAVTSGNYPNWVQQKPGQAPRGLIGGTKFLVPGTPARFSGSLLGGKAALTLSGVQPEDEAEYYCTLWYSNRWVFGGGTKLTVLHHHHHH
Procedure: as §2

[13] = biological target: T13, anti-FLT3/anti-albumin/anti-CD3 multispecific protein containing humanized FLH92b; assay: as above
T13 construct: trispecific single-chain fusion with His6; purified from CHO conditioned medium
T13 sequence (chain, as listed by the source): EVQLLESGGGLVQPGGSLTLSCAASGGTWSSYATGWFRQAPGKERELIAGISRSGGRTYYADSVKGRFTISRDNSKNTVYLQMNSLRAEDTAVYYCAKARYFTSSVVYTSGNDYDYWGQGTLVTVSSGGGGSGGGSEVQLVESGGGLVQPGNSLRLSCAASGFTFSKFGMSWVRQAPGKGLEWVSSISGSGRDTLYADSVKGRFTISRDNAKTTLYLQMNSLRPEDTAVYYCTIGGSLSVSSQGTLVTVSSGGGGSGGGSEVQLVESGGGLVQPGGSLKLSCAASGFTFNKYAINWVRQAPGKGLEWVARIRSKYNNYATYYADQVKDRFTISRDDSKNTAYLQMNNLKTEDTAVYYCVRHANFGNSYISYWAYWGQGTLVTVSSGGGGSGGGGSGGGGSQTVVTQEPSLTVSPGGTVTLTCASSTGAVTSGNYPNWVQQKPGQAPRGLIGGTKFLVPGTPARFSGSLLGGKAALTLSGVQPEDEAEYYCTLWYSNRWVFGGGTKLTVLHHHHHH
Procedure: as §2

[14] = biological target: T14, anti-FLT3/anti-albumin/anti-CD3 multispecific protein containing humanized FLH4; assay: as above
T14 construct: trispecific single-chain fusion with His6; purified from CHO conditioned medium
T14 sequence (chain, as listed by the source): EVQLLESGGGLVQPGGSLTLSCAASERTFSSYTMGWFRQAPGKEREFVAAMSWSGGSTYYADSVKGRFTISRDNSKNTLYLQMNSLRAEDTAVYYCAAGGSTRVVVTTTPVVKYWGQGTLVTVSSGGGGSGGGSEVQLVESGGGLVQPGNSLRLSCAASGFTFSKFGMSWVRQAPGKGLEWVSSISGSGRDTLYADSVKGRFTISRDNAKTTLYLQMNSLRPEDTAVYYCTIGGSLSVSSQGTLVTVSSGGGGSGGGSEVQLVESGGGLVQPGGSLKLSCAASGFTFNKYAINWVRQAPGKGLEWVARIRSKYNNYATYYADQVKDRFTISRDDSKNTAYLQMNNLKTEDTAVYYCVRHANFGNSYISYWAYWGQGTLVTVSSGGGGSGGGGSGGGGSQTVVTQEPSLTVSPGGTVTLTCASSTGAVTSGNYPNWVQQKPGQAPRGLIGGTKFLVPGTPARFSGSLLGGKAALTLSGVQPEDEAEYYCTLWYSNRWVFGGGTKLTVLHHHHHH
Procedure: as §2

[15] = biological target: T9, anti-FLT3/anti-albumin/anti-CD3 …; assay: biolayer interferometry (data not shown)
human FLT3 protein [16] = biological target: T15, human FLT3 protein (human, UniProt P36888 27-541, limits assumed); assay: colorimetric ELISA, signal over control wells lacking FLT3
T15 construct: protein coated in the screening ELISA; also called ELISA FLT3

human FLT3 protein [17] = biological target: T15, human FLT3 protein; assay: colorimetric ELISA, periplasmic extract

Kd [1]: 24 nM
Kd [2]: 2 nM
Kd [3]: 102 nM
Kd [4]: 26 nM
Kd [5]: 18 nM
Kd [6]: 34 nM
Kd [7]: 161 nM
Kd [8]: 35 nM
Kd [9]: 2.7 nM
Kd [10]: 19 nM
Kd [11]: 11.8 nM
Kd [12]: 10 nM
Kd [13]: 7.8 nM
Kd [14]: 214 nM
B1: biotinylated cynomolgus FLT3 protein (receptor, cynomolgus monkey)
chain: NQDLPVIKCVLINHKNNDSSVGKSSSYPMVSESPEDLGCALRPQSAGTVYEAATVEVDVSASITLQVLVDTPGNISCLWVFKHSSLNCQPHFDVQNRGVVSMVILKMTETQAGEYLLFIQSEATNYTIVFTVSIRNTLLFTLRRPYFRKMENQDALVCISESVPEPIVEWVLCDSQGESCKEESPAVVKKEEKVLHELFGTDIRCCARNELGRECTRLFTIDLNQTPQTTLPQLFLKVGEPLWIRCKAVHVNHGFGLTWELENKALEEGSYFEMSTYSTNRTMIRILFAFVSSVARNDTGYYTCSSSKHPSQSALVTIVEKGFINATNSSEDYEIDQYEEFCFSVRFKAYPQIRCTWTFSRKAFPCEQKALDDGYSVSKFCNHKHQPGEYIFHAENGDAQFTKMFTLNIRRKPQVLAEASASQASCSSDGYPLPSWTWKKCSDKSPNCTEDIPEGVWNRKANRKVFGQWVSSSTLNMSEAMKGFLVKCCAYNSLGTSCETILLNSPGPFPFIQDS
modifications: biotinylated (sites not given)
notes: loaded on streptavidin Octet tips; also called Cynomolgus Monkey FLT3

Kd [15]: 4.4 nM
B2: cynomolgus serum albumin (other, cynomolgus monkey, UniProt A2V9Z4 25-608, looked up)
chain: DTHKSEVAHRFKDLGEEHFKGLVLVAFSQYLQQCPFEEHVKLVNEVTEFAKTCVADESAENCDKSLHTLFGDKLCTVATLRETYGEMADCCAKQEPERNECFLQHKDDNPNLPPLVRPEVDVMCTAFHDNEATFLKKYLYEVARRHPYFYAPELLFFAARYKAAFAECCQAADKAACLLPKLDELRDEGKASSAKQRLKCASLQKFGDRAFKAWAVARLSQKFPKAEFAEVSKLVTDLTKVHTECCHGDLLECADDRADLAKYMCENQDSISSKLKECCDKPLLEKSHCLAEVENDEMPADLPSLAADYVESKDVCKNYAEAKDVFLGMFLYEYARRHPDYSVMLLLRLAKAYEATLEKCCAAADPHECYAKVFDEFQPLVEEPQNLVKQNCELFEQLGEYKFQNALLVRYTKKVPQVSTPTLVEVSRNLGKVGAKCCKLPEAKRMPCAEDYLSVVLNRLCVLHEKTPVSEKVTKCCTESLVNRRPCFSALELDEAYVPKAFNAETFTFHADMCTLSEKEKQVKKQTALVELVKHKPKATKEQLKGVMDNFAAFVEKCCKADDKEACFAEEGPKFVAASQAALA

FLT3/control (human FLT3 protein [16]): 15 ratio
ELISA FLT3 (absorbance) (human FLT3 protein [17]): 1.4 absorbance
B3: FLL153 (VHH)
VHH: QVQLQESGGGLVQVGGSLMVSCAASGGTFSSYATGWFRQVPGKEREFIAGVSRNSGRTYYAESVKGRFTISRDNAKNTVYLQMNTLKPDDTGVYYCAAARYFTRDAVYTSGDDYDYWGQGTQVTVSS
notes: llama anti-FLT3 variable domain; E. coli periplasmic extract

FLT3/control (human FLT3 protein [16]): 15 ratio
ELISA FLT3 (absorbance) (human FLT3 protein [17]): 1.3 absorbance
B4: FLL134 (VHH)
VHH: QVQLQESGGGLVQPGGSLRLSCAASGGTFSSYATGWFRQVPGKEREFIAGISRNSGRTYAESVKGRFTISRDNAKNTVYLQMNTLRPDDTAVYYCAAARYFTRDAIYTSGDDYDYWGQGTQVTASS
notes: as for B3
